Measured values reported in patent WO2021084104A1 (dated 2021).
One block for each binder: values may come before it.

Experiments:
[1] = target: T1, full-length 4-1BB on cells (transfected CHO-S cells, in vitro activated CD4 positive T-cells) (human, UniProt Q07011 24-255); experiment: flow cytometry on transfected and endogenously expressing cells (Fig. 6B)
T1 construct: whole, on cells; also called target expressing cells

[2] = target: T2, full-length CD40 on cells (transfected CHO-S cells, Raji B-cell line, primary B cells) (human, UniProt P25942 21-277); experiment: as above
T2 construct: whole, on cells; also called target expressing cells

[3] = target: T3, full-length OX40 on cells (transfected CHO-S cells, in vitro activated CD4 positive T-cells) (human, UniProt P43489 29-277); experiment: flow cytometry on transfected and endogenously expressing cells (Fig. 6A)
T3 construct: whole, on cells; also called 0X40; target expressing cells
T3 sequence (looked up): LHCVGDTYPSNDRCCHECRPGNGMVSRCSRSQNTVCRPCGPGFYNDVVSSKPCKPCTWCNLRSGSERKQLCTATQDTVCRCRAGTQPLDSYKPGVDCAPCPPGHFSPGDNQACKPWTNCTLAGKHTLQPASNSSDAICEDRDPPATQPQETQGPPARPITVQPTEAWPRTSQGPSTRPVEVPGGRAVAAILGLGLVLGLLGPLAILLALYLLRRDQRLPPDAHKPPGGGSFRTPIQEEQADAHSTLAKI

[4] = target: T2, full-length CD40 on cells (transfected …); experiment: as above
[5] = target: T3, full-length OX40 on cells (transfected …); experiment: flow cytometry on overexpressing or endogenously expressing cells (Fig. 7)
[6] = target: T2, full-length CD40 on cells (transfected …); experiment: as above
[7] = target: T3, full-length OX40 on cells (transfected …); experiment: flow cytometry on transfected and endogenously expressing cells (Fig. 6C)
[8] = target: T1, full-length 4-1BB on cells (transfected …); experiment: as above

T2 sequence (P25942 21-277): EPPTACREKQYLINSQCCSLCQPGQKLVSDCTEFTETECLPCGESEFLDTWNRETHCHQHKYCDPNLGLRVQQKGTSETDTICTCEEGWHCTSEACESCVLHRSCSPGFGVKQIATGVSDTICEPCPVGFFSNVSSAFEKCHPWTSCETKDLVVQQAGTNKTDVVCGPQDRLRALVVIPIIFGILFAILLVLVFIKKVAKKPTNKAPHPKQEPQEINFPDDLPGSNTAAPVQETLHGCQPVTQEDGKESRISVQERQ
T1 sequence (Q07011 24-255): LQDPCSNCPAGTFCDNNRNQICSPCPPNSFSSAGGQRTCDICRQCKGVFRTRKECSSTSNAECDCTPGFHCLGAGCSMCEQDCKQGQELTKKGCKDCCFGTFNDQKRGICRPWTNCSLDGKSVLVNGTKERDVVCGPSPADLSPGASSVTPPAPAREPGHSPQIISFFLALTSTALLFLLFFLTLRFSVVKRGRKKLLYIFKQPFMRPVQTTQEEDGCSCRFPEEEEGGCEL

binding result [1]: binds | binding result [2]: binds
B1: tetra VH IgG #4 (VH-CH1=41BB #4, VH-CL=CD40 #3) (bispecific antibody, V domains shown, not shown: a dimerising Fc or GST)
V domain 1: EVQLLESGGGLVQPGGSLRLSCAASGFTFGDYAMSWFRQAPGKGLEWVAVLSYDGSNTDYADSVKGRFTISRDNSKNTLYLQMNSLRAEDTAVYYCAKGPLILAAGNYWGQGTLVTVSS
V domain 2: EVQLLESGGGLVQPGGSLRLSCAASGFTFSSYAMSWVRQAPGKGLEWVSRLNSDGITATYADSVKGRFTISRDNSKNTLYLQMNSLRAEDTAVYYCARGKIPAIDHWGQGTLVTVSS
notes: Human IgG1 format with a VH in place of the VL; no VL domain; also called tetra VH lgG#4; anti-41 BB/CD40 tetra-VH IgG

binding result [3]: binds | binding result [4]: binds
B2: tetra VH IgG #2 (VH-CH1=OX40 #2, VH-CL=CD40 #5) (bispecific antibody, V domains shown, not shown: a dimerising Fc or GST)
V domain 1: EVQLLESGGGLVQPGGSLRLSCAASGFTFSSYAMSWVRQAPGKGLEWVSGVSGGGGSTYYADSVRGRFTISRDNSKNTLYLQMNSLRAEDTAVYYCARGWDDINVWGQGTLVTVSS
V domain 2: EVQLLESGGGLVQPGGSLRLSCAASGFTFSSYTMDWVRQAPGKGLEWVSSISESGDTTDYADSVKGRFTISRDNSKNTLYLQMNSLRAEDTAVYYCARCSGGSCYSVNWGQGTLVTVSS
notes: Human IgG1 format with a VH in place of the VL; no VL domain; also called anti-CD40/OX40 tetra-VH IgG; OX40/CD40 bispecific antibody

binding result [5]: binds | binding result [6]: binds
B3: tetra VH IgG #5 (VH-CH1=CD40 #5, VH-CL=OX40 #2) (bispecific antibody, V domains shown, not shown: a dimerising Fc or GST)
V domain 1: B2 V domain 2
V domain 2: B2 V domain 1
notes: Human IgG1 format with a VH in place of the VL; no VL domain; also called tetra VH lgG#5

binding result [7]: binds | binding result [8]: binds
B4: tetra VH IgG #20 (VH-CH1=41BB #4, VH-CL=OX40 #2) (bispecific antibody, V domains shown, not shown: a dimerising Fc or GST)
V domain 1: B1 V domain 1
V domain 2: B2 V domain 1
notes: Human IgG1 format with a VH in place of the VL; no VL domain; also called anti 0X40/41 BB tetra-VH IgG
